From PMC3536657

Experiments:
[1] = molecular target: b12 chimeric IgG, germline heavy chain paired with the mature light chain (human); experiment: BLI; antibody-capture kinetics: IgG on biosensors, 2-fold serial dilutions of Env; mean of curves with R^2 >= 0.95
[2] = molecular target: b12 chimeric IgG, mature heavy chain paired with the germline light chain (human); experiment: as above
mature IgG b12 (human) = experiment: as above
[3] = molecular target: HXB2 gp120 (HIV-1 clade B, isolate HXB2) (UniProt P04578)
[4] = molecular target: QH0692 gp120 (HIV-1 (clade B, isolate QH0692))

Sequence of mature IgG b12 (human) (heavy, as listed by the source, chain 1 of 2): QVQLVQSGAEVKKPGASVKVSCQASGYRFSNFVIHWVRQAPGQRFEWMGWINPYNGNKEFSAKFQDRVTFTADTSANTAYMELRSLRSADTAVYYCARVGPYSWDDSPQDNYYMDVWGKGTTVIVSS
Sequence of mature IgG b12 (human) (light, as listed by the source, chain 2 of 2): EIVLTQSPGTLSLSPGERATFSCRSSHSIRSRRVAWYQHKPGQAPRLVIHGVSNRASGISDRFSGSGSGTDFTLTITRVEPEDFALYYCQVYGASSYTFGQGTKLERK
Sequence of b12 chimeric IgG, germline heavy chain paired with the mature light chain (human) (heavy, as listed by the source, chain 1 of 2): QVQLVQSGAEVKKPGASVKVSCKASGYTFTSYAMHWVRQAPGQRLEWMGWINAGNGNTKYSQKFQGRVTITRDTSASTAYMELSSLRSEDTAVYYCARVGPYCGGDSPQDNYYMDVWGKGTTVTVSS
Sequence of b12 chimeric IgG, mature heavy chain paired with the germline light chain (human) (light, as listed by the source, chain 2 of 2): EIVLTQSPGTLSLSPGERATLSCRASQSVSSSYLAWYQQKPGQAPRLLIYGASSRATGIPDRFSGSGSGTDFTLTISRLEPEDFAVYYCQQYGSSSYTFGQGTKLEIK

Row | Substance | Ka [1] [M⁻¹] | Ka [2] [M⁻¹] | Ka (mature IgG b12 (human)) [M⁻¹] | Kd (mature IgG b12 (human)) [nM] | neutralisation of HXB2 virions (luciferase reporter cells), IC50 [3] [µg/mL] | neutralisation of QH0692 virions (luciferase reporter cells), IC50 [4] [µg/mL]
1 | QH0692 gp120 (natural protein) | 1.39e+07 | 7.56e+06 | 2e+09 | 2 |  | 
2 | mature IgG b12 (antibody) |  |  |  |  | 0.002 | 0.22
